# Patent US6352972
# Target: collagen (collagen-coated wells, source not stated)
# Test: cell-based or functional assay
substance,measurement,value
human platelet-derived TGFβ1 (commercial) (from UniProt P01137 279-390) (ligand),proliferation of 3T3 cells,15 fold
